# T1: full-length hCDCP1 with N-terminal c-Myc tag (expression vector GS01), on Ba/F3-hCDCP1 cells or … (human, UniProt Q9H5V8 30-836)
# T1 construct: also called human CDCP1; hCDCP1 forced expression cells
# T1 sequence: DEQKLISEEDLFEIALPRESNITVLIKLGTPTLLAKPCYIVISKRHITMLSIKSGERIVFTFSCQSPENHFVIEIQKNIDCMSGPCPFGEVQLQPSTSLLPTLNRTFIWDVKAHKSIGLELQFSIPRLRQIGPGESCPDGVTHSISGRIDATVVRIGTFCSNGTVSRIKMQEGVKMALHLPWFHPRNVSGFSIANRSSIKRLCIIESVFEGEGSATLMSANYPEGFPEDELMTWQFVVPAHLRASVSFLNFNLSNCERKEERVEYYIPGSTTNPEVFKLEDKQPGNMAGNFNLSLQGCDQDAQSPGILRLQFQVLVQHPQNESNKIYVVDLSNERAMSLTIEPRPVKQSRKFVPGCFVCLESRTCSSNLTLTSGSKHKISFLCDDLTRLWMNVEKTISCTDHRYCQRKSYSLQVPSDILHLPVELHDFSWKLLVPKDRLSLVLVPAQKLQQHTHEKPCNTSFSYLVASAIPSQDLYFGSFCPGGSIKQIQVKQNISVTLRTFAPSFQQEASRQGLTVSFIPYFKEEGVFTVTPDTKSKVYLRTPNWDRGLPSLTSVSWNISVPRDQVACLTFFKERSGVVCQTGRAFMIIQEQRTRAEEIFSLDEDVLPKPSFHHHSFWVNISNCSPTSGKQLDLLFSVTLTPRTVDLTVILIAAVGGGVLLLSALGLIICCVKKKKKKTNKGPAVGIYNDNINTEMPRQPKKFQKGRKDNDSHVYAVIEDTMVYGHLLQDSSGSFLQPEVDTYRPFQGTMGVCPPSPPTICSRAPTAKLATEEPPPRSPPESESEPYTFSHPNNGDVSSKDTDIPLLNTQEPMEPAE
# Target: T1, full-length hCDCP1 with N-terminal …
# Assay: flow cytometry on Ba/F3-hCDCP1 cells
row,Binder,binding result
1,"mh12A041HCori/LCoriA (antibody, human IgG1, kappa, V domains shown, mouse-human chimeric antibody, human IgG1/kappa constant regions) VH: EVQLQESGPGILQPSQTLSLTCSFSGFSLSTSGMGVSWIRQPSGKGLEWLAHIYWDDDKRYNPSLKSRLTISKDTSSNQVFLKITSVDTADTATYYCARSGSYYGSSLDCWGQGTTLTVSS VL: DVLMTQTPLSLPVSLGDQASISCRSSQSIVYSNGNTYLEWYLQKPGQSPKLLIYKVSNRFSGVPDRFSGSGSGTDFTLKISRVEAEDLGVYYCFQGSHVPWTFGGGTKLEIRR",binds
2,"mh12A041HCoriA/LCoriB (antibody, human IgG1, kappa, V domains shown, mouse-human chimeric antibody, human IgG1/kappa constant regions) VH: EVQLQESGPGILQPSQTLSLTCSFSGFSLSTFGMGVSWIRQPSGKGLEWLAHIYWDDDKRYNPSLKSRLTISKDTSSNQVFLKITSVDTADTATYYCARSGSYYGSSLDCWGQGTTLTVSS VL: DVLMTQTPLSLPVSLGDQASISCRSSQNIVHSDGNTYLEWYLQKPGQSPKLLIYKVSNRFSGVPDRFSGSGSGTDFTLKISRVEAEDLGVYYCFQGSHVPWTFGGGTKLEIRR",binds
3,"mh12A041HCoriA/LCori (antibody, human IgG1, kappa, V domains shown, mouse-human chimeric antibody, human IgG1/kappa constant regions) VH: EVQLQESGPGILQPSQTLSLTCSFSGFSLSTFGMGVSWIRQPSGKGLEWLAHIYWDDDKRYNPSLKSRLTISKDTSSNQVFLKITSVDTADTATYYCARSGSYYGSSLDCWGQGTTLTVSS VL: DVLMTQTPLSLPVSLGDQASISCRSSQSIVHSNGNTYLEWYLQKPGQSPKLLIYKVSNRFSGVPDRFSGSGSGTDFTLKISRVEAEDLGVYYCFQGSHVPWTFGGGTKLEIKR",binds
4,"mh12A041HCori/LCv1 (antibody, human IgG1, kappa, V domains shown, mouse-human chimeric antibody, human IgG1/kappa constant regions) VH: EVQLQESGPGILQPSQTLSLTCSFSGFSLSTSGMGVSWIRQPSGKGLEWLAHIYWDDDKRYNPSLKSRLTISKDTSSNQVFLKITSVDTADTATYYCARSGSYYGSSLDCWGQGTTLTVSS VL: DVLMTQTPLSLPVSLGDQASISCRSSQSIVHSSGNTYLEWYLQKPGQSPKLLIYKVSNRFSGVPDRFSGSGSGTDFTLKISRVEAEDLGVYYCFQGSHVPWTFGGGTKLEIRR",binds
5,"mh12A041HCv1/LCv1 (antibody, human IgG1, kappa, V domains shown, mouse-human chimeric antibody, human IgG1/kappa constant regions) VH: EVQLQESGPGILQPSQTLSLTCSFSGFSLSTSGMGVSWIRQPSGKGLEWLAHIYWDDDKRYNPSLKSRLTISKDTSSNQVFLKITSVDTADTATYYCARSGSYYGSSLDSWGQGTTLTVSS VL: DVLMTQTPLSLPVSLGDQASISCRSSQSIVHSSGNTYLEWYLQKPGQSPKLLIYKVSNRFSGVPDRFSGSGSGTDFTLKISRVEAEDLGVYYCFQGSHVPWTFGGGTKLEIRR",binds
6,"mh12A041HCv1/LCori (antibody, human IgG1, kappa, V domains shown, mouse-human chimeric antibody, human IgG1/kappa constant regions) VH: EVQLQESGPGILQPSQTLSLTCSFSGFSLSTSGMGVSWIRQPSGKGLEWLAHIYWDDDKRYNPSLKSRLTISKDTSSNQVFLKITSVDTADTATYYCARSGSYYGSSLDSWGQGTTLTVSS VL: DVLMTQTPLSLPVSLGDQASISCRSSQSIVHSNGNTYLEWYLQKPGQSPKLLIYKVSNRFSGVPDRFSGSGSGTDFTLKISRVEAEDLGVYYCFQGSHVPWTFGGGTKLEIKR",binds
7,"mh12A041HCori/LCoriB (antibody, human IgG1, kappa, V domains shown, mouse-human chimeric antibody, human IgG1/kappa constant regions) VH: EVQLQESGPGILQPSQTLSLTCSFSGFSLSTSGMGVSWIRQPSGKGLEWLAHIYWDDDKRYNPSLKSRLTISKDTSSNQVFLKITSVDTADTATYYCARSGSYYGSSLDCWGQGTTLTVSS VL: DVLMTQTPLSLPVSLGDQASISCRSSQNIVHSDGNTYLEWYLQKPGQSPKLLIYKVSNRFSGVPDRFSGSGSGTDFTLKISRVEAEDLGVYYCFQGSHVPWTFGGGTKLEIRR",binds
8,"mh12A041HCoriA/LCoriA (antibody, human IgG1, kappa, V domains shown, mouse-human chimeric antibody, human IgG1/kappa constant regions) VH: EVQLQESGPGILQPSQTLSLTCSFSGFSLSTFGMGVSWIRQPSGKGLEWLAHIYWDDDKRYNPSLKSRLTISKDTSSNQVFLKITSVDTADTATYYCARSGSYYGSSLDCWGQGTTLTVSS VL: DVLMTQTPLSLPVSLGDQASISCRSSQSIVYSNGNTYLEWYLQKPGQSPKLLIYKVSNRFSGVPDRFSGSGSGTDFTLKISRVEAEDLGVYYCFQGSHVPWTFGGGTKLEIRR",binds
9,"mh12A041HCv1/LCv2 (antibody, human IgG1, kappa, V domains shown, mouse-human chimeric antibody, human IgG1/kappa constant regions) VH: EVQLQESGPGILQPSQTLSLTCSFSGFSLSTSGMGVSWIRQPSGKGLEWLAHIYWDDDKRYNPSLKSRLTISKDTSSNQVFLKITSVDTADTATYYCARSGSYYGSSLDSWGQGTTLTVSS VL: DVLMTQTPLSLPVSLGDQASISCRSSQSIVHSNANTYLEWYLQKPGQSPKLLIYKVSNRFSGVPDRFSGSGSGTDFTLKISRVEAEDLGVYYCFQGSHVPWTFGGGTKLEIRR",binds
10,"mh12A041HCori/LCv2 (antibody, human IgG1, kappa, V domains shown, mouse-human chimeric antibody, human IgG1/kappa constant regions) VH: EVQLQESGPGILQPSQTLSLTCSFSGFSLSTSGMGVSWIRQPSGKGLEWLAHIYWDDDKRYNPSLKSRLTISKDTSSNQVFLKITSVDTADTATYYCARSGSYYGSSLDCWGQGTTLTVSS VL: DVLMTQTPLSLPVSLGDQASISCRSSQSIVHSNANTYLEWYLQKPGQSPKLLIYKVSNRFSGVPDRFSGSGSGTDFTLKISRVEAEDLGVYYCFQGSHVPWTFGGGTKLEIRR",binds
11,"mh14A025HCv1/LCori (antibody, human IgG1, kappa, V domains shown, mouse-human chimeric antibody, human IgG1/kappa constant regions) VH: EVQLQESGAELVRPGALVKLSCKASGFNIKDYYMHWVKQRPEQGLEWIGWIDPESGNTIYDPKFQGKASITADTSSNTAYLQLSSLTSEDTAVYYCGGLLYAMDYWGQGTSVTVSS VL: DIQMTQTTSSLSASLGDRVTISCRASQDISNYLNWYQQKPDGTVKLLIYFTSRLHSGVPSRFSGSGSGTDYSLTISNLEQEDIATYFCQQGNTLPRTFGGGTKLEIRR",binds
12,"mh14A025HCv17/LCori (antibody, human IgG1, kappa, V domains shown, mouse-human chimeric antibody, human IgG1/kappa constant regions) VH: EVQLQESGAELVRPGALVKLSCKASGFNIKDYYMHWVKQRPEQGLEWIGWIDPENMNTIYDPKFQGKASITADTSSNTAYLQLSSLTSEDTAVYYCGGLLYAMDYWGQGTSVTVSS VL: DIQMTQTTSSLSASLGDRVTISCRASQDISNYLNWYQQKPDGTVKLLIYFTSRLHSGVPSRFSGSGSGTDYSLTISNLEQEDIATYFCQQGNTLPRTFGGGTKLEIRR",binds
13,"mh14A025HCv19/LCori (antibody, human IgG1, kappa, V domains shown, mouse-human chimeric antibody, human IgG1/kappa constant regions) VH: EVQLQESGAELVRPGALVKLSCKASGFNIKDYYMHWVKQRPEQGLEWIGWIDPERGNTIYDPKFQGKASITADTSSNTAYLQLSSLTSEDTAVYYCGGLLYAMDYWGQGTSVTVSS VL: DIQMTQTTSSLSASLGDRVTISCRASQDISNYLNWYQQKPDGTVKLLIYFTSRLHSGVPSRFSGSGSGTDYSLTISNLEQEDIATYFCQQGNTLPRTFGGGTKLEIRR",binds
14,"mh14A025HCv15/LCori (antibody, human IgG1, kappa, V domains shown, mouse-human chimeric antibody, human IgG1/kappa constant regions) VH: EVQLQESGAELVRPGALVKLSCKASGFNIKDYYMHWVKQRPEQGLEWIGWIDPENLNTIYDPKFQGKASITADTSSNTAYLQLSSLTSEDTAVYYCGGLLYAMDYWGQGTSVTVSS VL: DIQMTQTTSSLSASLGDRVTISCRASQDISNYLNWYQQKPDGTVKLLIYFTSRLHSGVPSRFSGSGSGTDYSLTISNLEQEDIATYFCQQGNTLPRTFGGGTKLEIRR",binds
15,"mh14A025HCv5/LCori (antibody, human IgG1, kappa, V domains shown, mouse-human chimeric antibody, human IgG1/kappa constant regions) VH: EVQLQESGAELVRPGALVKLSCKASGFNIKDYYMHWVKQRPEQGLEWIGWIDPENDNTIYDPKFQGKASITADTSSNTAYLQLSSLTSEDTAVYYCGGLLYAMDYWGQGTSVTVSS VL: DIQMTQTTSSLSASLGDRVTISCRASQDISNYLNWYQQKPDGTVKLLIYFTSRLHSGVPSRFSGSGSGTDYSLTISNLEQEDIATYFCQQGNTLPRTFGGGTKLEIRR",binds
16,"mh14A025HCv21/LCori (antibody, human IgG1, kappa, V domains shown, mouse-human chimeric antibody, human IgG1/kappa constant regions) VH: EVQLQESGAELVRPGALVKLSCKASGFNIKDYYMHWVKQRPEQGLEWIGWIDPETGNTIYDPKFQGKASITADTSSNTAYLQLSSLTSEDTAVYYCGGLLYAMDYWGQGTSVTVSS VL: DIQMTQTTSSLSASLGDRVTISCRASQDISNYLNWYQQKPDGTVKLLIYFTSRLHSGVPSRFSGSGSGTDYSLTISNLEQEDIATYFCQQGNTLPRTFGGGTKLEIRR",binds
17,"mh14A025HCv8/LCori (antibody, human IgG1, kappa, V domains shown, mouse-human chimeric antibody, human IgG1/kappa constant regions) VH: EVQLQESGAELVRPGALVKLSCKASGFNIKDYYMHWVKQRPEQGLEWIGWIDPEFGNTIYDPKFQGKASITADTSSNTAYLQLSSLTSEDTAVYYCGGLLYAMDYWGQGTSVTVSS VL: DIQMTQTTSSLSASLGDRVTISCRASQDISNYLNWYQQKPDGTVKLLIYFTSRLHSGVPSRFSGSGSGTDYSLTISNLEQEDIATYFCQQGNTLPRTFGGGTKLEIRR",binds
18,"mh14A025HCv7/LCori (antibody, human IgG1, kappa, V domains shown, mouse-human chimeric antibody, human IgG1/kappa constant regions) VH: EVQLQESGAELVRPGALVKLSCKASGFNIKDYYMHWVKQRPEQGLEWIGWIDPENENTIYDPKFQGKASITADTSSNTAYLQLSSLTSEDTAVYYCGGLLYAMDYWGQGTSVTVSS VL: DIQMTQTTSSLSASLGDRVTISCRASQDISNYLNWYQQKPDGTVKLLIYFTSRLHSGVPSRFSGSGSGTDYSLTISNLEQEDIATYFCQQGNTLPRTFGGGTKLEIRR",binds
19,"mh14A025HCv2/LCori (antibody, human IgG1, kappa, V domains shown, mouse-human chimeric antibody, human IgG1/kappa constant regions) VH: EVQLQESGAELVRPGALVKLSCKASGFNIKDYYMHWVKQRPEQGLEWIGWIDPENANTIYDPKFQGKASITADTSSNTAYLQLSSLTSEDTAVYYCGGLLYAMDYWGQGTSVTVSS VL: DIQMTQTTSSLSASLGDRVTISCRASQDISNYLNWYQQKPDGTVKLLIYFTSRLHSGVPSRFSGSGSGTDYSLTISNLEQEDIATYFCQQGNTLPRTFGGGTKLEIRR",binds

# — patent publication US20230050380A1 (CHIOME BIOSCIENCE, published 2023)
